Data: patent US20040219159, “Methods and compositions for therapeutic intervention in infectious disease” (published 2004)

Molecular target: T1, HspR (Rv0353) (Mycobacterium tuberculosis, UniProt O06302 O06302:1-126)
T1 sequence: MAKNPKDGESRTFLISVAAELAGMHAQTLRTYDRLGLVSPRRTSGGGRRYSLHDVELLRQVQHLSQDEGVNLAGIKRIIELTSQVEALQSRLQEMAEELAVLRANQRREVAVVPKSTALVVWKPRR
Experiment: EMSA
Details: tags: His-tag (pQE30, expressed in E. coli SG13009, renatured from urea); label: 32P; annealed 40-mers with short 5' overhangs

B1: HAIR2 oligonucleotide DNAKIR-F/DNAKIR-R (dsDNA)
DNA 1: GCTCAGTAAGTTGAGTGCATCAGGCTCAGCTCTGAATTGA
DNA 2: GTCAATTCAGAGCTGAGCCTGATGCACTCAACTTACTGAG
  binding result: binds
